For assay [1], the target named is FcγRIIa (UniProt P12318). Put plainly: SPR; KD wt/KD mut vs 16588. (In general: SPR reads the build-up and loss of mass on a sensor chip optically.)
The target of assay [2] is FcγRIIb (UniProt P31994). Put plainly: SPR; KD wt/KD mut vs 16588.
For assay [3], the target named is FcγRIIa (UniProt P12318). Nature of the assay: SPR Biacore, Ab on HER2 chip.
For assay [4], the target named is FcγRIIb (UniProt P31994). Put plainly: SPR Biacore, Ab on HER2 chip.
Assay [5] concerns the target soluble human FcRn (human) (UniProt P55899). Put plainly: SPR ProteOn, Ab on protein L, pH 6.0.
Assay [6] has as its target FcγRIIa (UniProt P12318). Nature of the assay: SPR Biacore, Ab on HER2 chip; KD called ambiguous.
In assay [7] the target is FcγRIIb (UniProt P31994). Put plainly: SPR Biacore, Ab on HER2 chip; KD called ambiguous.
Assay [8] addresses biotinylated human FcRn (produced by Protocol 1) (human) (UniProt P55899). Put plainly: SPR; KD wt/KD mut vs parental variant.
Assay [9] has the same target. Put plainly: SPR Biacore T200, FcRn on neutravidin, pH 6.
Another assay has as its target FcγRI (UniProt P12314). Nature of the assay: SPR ProteOn, Ab on HER2 chip, equilibrium fit.
The target of assay [10] is FcγRIII (UniProt P08637). Put plainly: SPR ProteOn, Ab on HER2 chip, equilibrium fit.
Assay [11] has as its target FcγRIIaH (UniProt P12318). Nature of the assay: SPR ProteOn, Ab on HER2 chip, equilibrium fit.
The next assay addresses FcγRIIaR (UniProt P12318). Put plainly: SPR ProteOn, Ab on HER2 chip, equilibrium fit.
For assay [12], the target named is FcγRIII (UniProt P08637). Put plainly: SPR; KD wt/KD mut vs parental variant.
The target of assay [13] is FcγRIIaH (UniProt P12318). Put plainly: SPR; KD wt/KD mut vs parental variant.
The target in assay [14] is FcγRIIb (UniProt P31994). Put plainly: SPR ProteOn, Ab on HER2 chip, equilibrium fit.

Sequence of FcγRIII (P08637 17-208 limits assumed): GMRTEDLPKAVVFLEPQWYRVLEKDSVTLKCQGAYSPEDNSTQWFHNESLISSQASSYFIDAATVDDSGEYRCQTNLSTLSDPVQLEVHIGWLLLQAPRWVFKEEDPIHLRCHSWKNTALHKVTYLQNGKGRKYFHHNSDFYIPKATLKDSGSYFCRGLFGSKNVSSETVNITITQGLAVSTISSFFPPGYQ
Sequence of FcγRIIaH (P12318 34-217 limits assumed): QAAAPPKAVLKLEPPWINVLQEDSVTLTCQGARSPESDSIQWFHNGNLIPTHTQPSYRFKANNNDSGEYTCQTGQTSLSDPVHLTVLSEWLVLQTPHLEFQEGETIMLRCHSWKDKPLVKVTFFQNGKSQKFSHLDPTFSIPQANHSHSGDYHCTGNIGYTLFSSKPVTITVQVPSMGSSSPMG
Sequence of FcγRIIb (P31994 43-217 limits assumed): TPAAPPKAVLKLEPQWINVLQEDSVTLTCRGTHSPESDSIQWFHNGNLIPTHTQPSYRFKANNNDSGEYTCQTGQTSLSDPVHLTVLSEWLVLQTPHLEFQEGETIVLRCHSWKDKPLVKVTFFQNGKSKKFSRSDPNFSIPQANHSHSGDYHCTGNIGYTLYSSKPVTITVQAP
Sequence of biotinylated human FcRn (produced by Protocol 1) (human) (P55899 24-297 limits assumed, chain 1 of 2): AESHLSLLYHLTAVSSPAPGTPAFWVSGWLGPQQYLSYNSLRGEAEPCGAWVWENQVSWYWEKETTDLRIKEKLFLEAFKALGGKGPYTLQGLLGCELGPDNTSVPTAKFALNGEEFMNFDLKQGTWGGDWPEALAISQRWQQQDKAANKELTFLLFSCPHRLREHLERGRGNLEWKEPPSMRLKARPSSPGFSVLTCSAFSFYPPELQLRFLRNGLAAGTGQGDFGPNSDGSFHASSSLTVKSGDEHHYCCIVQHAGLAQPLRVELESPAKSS
Sequence of biotinylated human FcRn (produced by Protocol 1) (human) (P61769 21-119 limits assumed, chain 2 of 2, further chain): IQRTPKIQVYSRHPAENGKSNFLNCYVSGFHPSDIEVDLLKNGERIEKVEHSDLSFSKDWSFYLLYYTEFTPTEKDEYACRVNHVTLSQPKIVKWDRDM
Sequence of soluble human FcRn (human) (P55899 24-297 limits assumed, chain 1 of 2): as the sequence (P55899 24-297 limits assumed, chain 1 of 2) above
Sequence of soluble human FcRn (human) (P61769 21-119 limits assumed, chain 2 of 2, further chain): as the sequence (P61769 21-119 limits assumed, chain 2 of 2, further chain) above
Sequence of FcγRIIaR (P12318 34-217 H167R limits assumed): as the sequence (P12318 34-217 limits assumed) above, with H134R counted along it
Sequence of FcγRI (P12314 16-292 limits assumed): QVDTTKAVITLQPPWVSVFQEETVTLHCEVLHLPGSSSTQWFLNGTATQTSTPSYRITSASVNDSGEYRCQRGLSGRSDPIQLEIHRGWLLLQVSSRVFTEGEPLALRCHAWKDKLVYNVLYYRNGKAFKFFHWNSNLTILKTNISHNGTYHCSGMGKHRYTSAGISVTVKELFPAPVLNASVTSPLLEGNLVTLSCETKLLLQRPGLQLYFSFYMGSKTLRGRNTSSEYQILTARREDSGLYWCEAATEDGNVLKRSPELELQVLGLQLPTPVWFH

On to “trastuzumab Scaffold 1 variant 19307 (A378W) (antibody)”, for which the Relative FcγRIIa Binding with FcγRIIa [1] stood at 0.76. Besides, the Relative FcγRIIb Binding with FcγRIIb [2] stood at 0.7. For the same substance, the Kd with FcγRIIa [3] was 1450 nM; with FcγRIIb [4] it was 5460 nM.
The corresponding values for “trastuzumab Scaffold 1 variant 19311 (F275I) (antibody)” are 1.48, 1.71, 745 nM and 2220 nM.
The corresponding values for “trastuzumab Scaffold 1 variant 19316 (M252S) (antibody)” are 0.94, 1.01, 1160 nM and 3750 nM.
Take “trastuzumab Scaffold 1 variant 19325 (F275C_S304C) (antibody)”: the Kd in the assay with FcγRIIb [4] is 4910 nM.
Substance “trastuzumab Scaffold 1 variant 19310 (T250V) (antibody)” registered a Relative FcγRIIa Binding with FcγRIIa [1] of 1.22. In addition, the Relative FcγRIIb Binding in the assay with FcγRIIb [2] came out at 1.24. The Kd with FcγRIIa [3] worked out at 899 nM; in the assay with FcγRIIb [4], 3050 nM; in assay [5], 821 nM.
The substance “trastuzumab Scaffold 1 variant 19326 (V263C_V302C) (antibody)” displayed a Relative FcγRIIa Binding in the assay with FcγRIIa [1] of 1.14. The Relative FcγRIIb Binding in the assay with FcγRIIb [2] came out at 1.35. Further, the Kd in assay [5] worked out at 604 nM; in the assay with FcγRIIa [6], 963 nM; with FcγRIIb [7] it was 2820 nM.
For the substance “trastuzumab Scaffold 1 variant 19312 (V279I) (antibody)”, the Relative FcγRIIa Binding in the assay with FcγRIIa [1] came to 0.94. The substance also had a Relative FcγRIIb Binding with FcγRIIb [2] of 1.02. The Kd with FcγRIIa [3] came to 1170 nM; with FcγRIIb [4], 3720 nM.
For “trastuzumab Scaffold 6 (N297A) variant v31515 (A287F_T250V) (antibody)”, the Fold in [8] was 0.8. Besides, the Kd amounted to 553 nM in assay [9] and 18.7 nM with FcγRI.
“trastuzumab Scaffold 7 (S239D/I332E) variant v31519 (A287F_T250V) (antibody)”: the Kd in [9] amounted to 470 nM; in the assay with FcγRI it was 0.0108 nM; with FcγRIII [10], 29 nM; with FcγRIIaH [11], 655 nM; with FcγRIIaR, 685 nM.
Consider “trastuzumab Scaffold 1 variant 19314 (Y319F) (antibody)”, for which the Kd in the assay with FcγRIIb [4] is 3490 nM. That is a single-digit micromolar value.
As for “trastuzumab Scaffold 1 variant 19331 (V240C_I332C) (antibody)”, in the assay with FcγRIIa [1], the Relative FcγRIIa Binding stood at 0.02. Moreover, the Relative FcγRIIb Binding with FcγRIIb [2] worked out at 0.23. The Kd in the assay with FcγRIIa [3] was 63700 nM; with FcγRIIb [4] it was 16900 nM.
In the case of “trastuzumab Scaffold 6 (N297A) variant v31516 (M428F_T250V) (antibody)”, the Kd in assay [9] is 360 nM; with FcγRI, 20 nM.
With “trastuzumab Scaffold 7 (S239D/I332E) variant v31518 (A287F_M428F) (antibody)”, the Fold in the assay with FcγRIII [12] was found to be 1; with FcγRIIaH [13], 1.2; in assay [8], 1.2. In addition, the Kd is 275 nM in assay [9]; 0.0136 nM with FcγRI; 30.9 nM with FcγRIII [10]; 671 nM in the assay with FcγRIIaH [11]; 691 nM in the assay with FcγRIIaR; 1150 nM in the assay with FcγRIIb [14].
On to “trastuzumab Scaffold 6 (N297A) variant v31514 (A287F_M428F) (antibody)”, for which the Fold in assay [8] is 1.3. The Kd was determined as 369 nM in [9] and 16.2 nM in the assay with FcγRI.
With “trastuzumab Scaffold 1 variant 19304 (T289W) (antibody)”, the Kd with FcγRIIb [4] came out at 3460 nM.
For “trastuzumab Scaffold 1 variant 19308 (M428F) (antibody)”, in the assay with FcγRIIa [1], the Relative FcγRIIa Binding was determined as 1.06. The substance also came in with a Relative FcγRIIb Binding with FcγRIIb [2] of 1.08. The Kd with FcγRIIa [3] turned out to be 1030 nM; in the assay with FcγRIIb [4], 3510 nM; in assay [5], 464 nM.
“trastuzumab Scaffold 1 variant 19309 (L242I) (antibody)” came in with a Kd with FcγRIIb [4] of 5070 nM. This lies in the single-digit micromolar range.
For “trastuzumab Scaffold 1 variant 19306 (A339Q) (antibody)”, the Kd with FcγRIIa [3] came to 1040 nM; with FcγRIIb [4], 3810 nM.
On to “trastuzumab Scaffold 1 variant 19324 (D249C_P257C) (antibody)”, for which the Kd with FcγRIIb [4] was found to be 14000 nM.
“trastuzumab Scaffold 1 variant 19318 (L314M) (antibody)”: the Relative FcγRIIa Binding in the assay with FcγRIIa [1] was determined as 0.55. The same substance gave a Relative FcγRIIb Binding in the assay with FcγRIIb [2] of 0.66. The Kd was 2020 nM with FcγRIIa [3] and 5760 nM in the assay with FcγRIIb [4].
Substance “trastuzumab Scaffold 1 variant 19313 (V308I) (antibody)” displayed a Relative FcγRIIa Binding with FcγRIIa [1] of 0.89. In the assay with FcγRIIb [2], this substance displayed a Relative FcγRIIb Binding of 0.94. The values for the Kd with FcγRIIa [3] and with FcγRIIb [4] were 1240 nM and 4030 nM, respectively.
With “trastuzumab full-size antibody with N297A (Scaffold 6), variant v31513”, the Kd in assay [9] came to 467 nM; with FcγRI, 25.7 nM.
In the case of “trastuzumab Scaffold 1 variant 19328 (T289C_S304C) (antibody)”, the Relative FcγRIIa Binding with FcγRIIa [1] was 1.6. For the same substance, the Relative FcγRIIb Binding in the assay with FcγRIIb [2] came out at 1.85. Besides, the Kd with FcγRIIa [3] came out at 689 nM; with FcγRIIb [4], 2050 nM.
The corresponding values for “trastuzumab Scaffold 1 variant 19323 (R292C_V302C) (antibody)” are 0.3, 0.22, 3660 nM and 17600 nM.
As to “trastuzumab Scaffold 1 variant 19305 (A339W) (antibody)”, in the assay with FcγRIIa [1], the Relative FcγRIIa Binding stood at 1.72. Moreover, in the assay with FcγRIIb [2], the Relative FcγRIIb Binding is 1.81. The Kd was found to be 640 nM in the assay with FcγRIIa [3] and 2100 nM with FcγRIIb [4].
On to “trastuzumab Scaffold 1 variant 19327 (L242C_I336C) (antibody)”, for which, in the assay with FcγRIIa [1], the Relative FcγRIIa Binding came to 0.97. For the same substance, the Relative FcγRIIb Binding in the assay with FcγRIIb [2] came out at 1.18. Further, the Kd with FcγRIIa [3] turned out to be 1140 nM; with FcγRIIb [4] it was 3220 nM.
“trastuzumab variant v17078 (WT) (antibody)”: the Kd in assay [9] worked out at 292 nM; with FcγRI, 0.0894 nM; in the assay with FcγRIII [10] it was 1480 nM; in the assay with FcγRIIaR, 2070 nM; in the assay with FcγRIIb [14] it was 6850 nM.
Turning to “trastuzumab full-size antibody with homodimeric IgG1 Fc (Scaffold 1), variant 16588 (WT)”, the equilibrium dissociation constant (Kd) in the assay with FcγRIIb [4] was determined as 3800 nM; in assay [5] it was 641 nM.
Turning to “trastuzumab Scaffold 1 variant 19329 (F243C_T260C) (antibody)”, the Relative FcγRIIa Binding with FcγRIIa [1] was 0.38. In addition, the Relative FcγRIIb Binding with FcγRIIb [2] came out at 0.39. Besides, the results for the Kd in the assay with FcγRIIa [3] and in the assay with FcγRIIb [4] were 2930 nM and 9830 nM, respectively.
As for “trastuzumab Scaffold 1 variant 19322 (V259C_L306C) (antibody)”, the Relative FcγRIIa Binding in the assay with FcγRIIa [1] came out at 1.45. Also, the Relative FcγRIIb Binding with FcγRIIb [2] was determined as 1.02. Also, the Kd with FcγRIIa [3] was found to be 758 nM; in the assay with FcγRIIb [4] it was 3720 nM.
With “trastuzumab full-size antibody with S239D and I332E (Scaffold 7), variant v31517”, the Kd in assay [9] was determined as 337 nM; with FcγRIII [10], 32 nM; with FcγRIIaH [11] it was 775 nM; with FcγRIIaR, 775 nM; with FcγRIIb [14], 1250 nM.
In the case of “trastuzumab Scaffold 1 variant 19303 (A287F) (antibody)”, the figures for the Kd (in the assay with FcγRIIa [3]; in [5]) were 1070 nM and 690 nM, respectively.
On to “trastuzumab Scaffold 1 variant 19317 (L309Q) (antibody)”, for which the Relative FcγRIIa Binding with FcγRIIa [1] worked out at 0.96. In addition, in the assay with FcγRIIb [2], the Relative FcγRIIb Binding is 1.03. Besides, the Kd with FcγRIIa [3] turned out to be 1150 nM; in the assay with FcγRIIb [4] it was 3680 nM; in assay [5] it was 1000 nM.
“trastuzumab Scaffold 1 variant 19320 (L242C_K334C) (antibody)” registered a Relative FcγRIIa Binding with FcγRIIa [1] of 0.71. The Relative FcγRIIb Binding in the assay with FcγRIIb [2] came to 0.99. The Kd in the assay with FcγRIIa [3] amounted to 1540 nM; with FcγRIIb [4] it was 3820 nM; in assay [5] it was 645 nM.
“trastuzumab Scaffold 1 variant 19319 (K334R) (antibody)” gave a Relative FcγRIIa Binding with FcγRIIa [1] of 1.17. In addition, the Relative FcγRIIb Binding with FcγRIIb [2] is 1.29. The Kd with FcγRIIa [3] was found to be 941 nM; with FcγRIIb [4], 2950 nM.
As to “trastuzumab Scaffold 1 variant 19321 (A287C_L306C) (antibody)”, in the assay with FcγRIIa [1], the Relative FcγRIIa Binding was found to be 0.98. Also, the Relative FcγRIIb Binding with FcγRIIb [2] was 1.03. Besides, the dissociation constant Kd in the assay with FcγRIIa [3] came to 1130 nM; with FcγRIIb [4], 3670 nM; in assay [5], 693 nM.

The Kd is the concentration at which binding is half-saturated. A low value points to tighter binding.
